Assays:
[1] = target: soluble mouse Fc-human NKG2D dimer (human) (UniProt P26718); assay: SPR, 37 C, mFc-hNKG2D captured, TriNKET as analyte, experiment 3
[2] = target: soluble mouse Fc-human NKG2D dimer (human) (UniProt P26718); assay: SPR, 37 C, mFc-hNKG2D captured, TriNKET as analyte, experiment 1
[3] = target: soluble mouse Fc-human NKG2D dimer (human) (UniProt P26718); assay: SPR, 37 C, mFc-hNKG2D captured, TriNKET as analyte, steady state affinity fit, experiment 2
[4] = target: soluble mouse Fc-human NKG2D dimer (human) (UniProt P26718); assay: SPR, 37 C, mFc-hNKG2D captured, TriNKET as analyte, kinetic fit, experiment 2
[5] = target: soluble mouse Fc-human NKG2D dimer (human) (UniProt P26718); assay: SPR, 37 C, steady state affinity fit, average of three experiments for TriNKET A (cell split over r19 and r20, columns shifted)
[6] = target: soluble mouse Fc-human NKG2D dimer (human) (UniProt P26718); assay: SPR, 37 C, kinetic fit, average of three experiments for TriNKET A (cell split over r19 and r20, columns shifted)
[7] = target: soluble mouse Fc-human NKG2D dimer (human) (UniProt P26718); assay: SPR, 37 C, average of three experiments for TriNKET A (columns shifted)
[8] = target: soluble mouse Fc-human NKG2D dimer (human) (UniProt P26718); assay: SPR, 37 C, mFc-hNKG2D captured, TriNKET as analyte, kinetic fit, experiment 3
[9] = target: soluble mouse Fc-human NKG2D dimer (human) (UniProt P26718); assay: SPR, 37 C, mFc-hNKG2D captured, TriNKET as analyte, steady state affinity fit, experiment 1
[10] = target: soluble mouse Fc-human NKG2D dimer (human) (UniProt P26718); assay: SPR, 37 C, mFc-hNKG2D captured, TriNKET as analyte, steady state affinity fit, experiment 3
[11] = target: soluble mouse Fc-human NKG2D dimer (human) (UniProt P26718); assay: SPR, 37 C, mFc-hNKG2D captured, TriNKET as analyte, kinetic fit, experiment 1
[12] = target: soluble mouse Fc-human NKG2D dimer (human) (UniProt P26718); assay: SPR, 37 C, mFc-hNKG2D captured, TriNKET as analyte, experiment 2

Chain of soluble mouse Fc-human NKG2D dimer (human) (P26718 78-216): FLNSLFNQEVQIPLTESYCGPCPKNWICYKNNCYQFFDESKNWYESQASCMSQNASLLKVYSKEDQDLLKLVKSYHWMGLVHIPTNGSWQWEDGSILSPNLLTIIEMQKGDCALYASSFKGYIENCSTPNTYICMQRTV

B1: TriNKET A (a TriNKET containing A49) (bispecific antibody, part only; not given: Tumour antigen arm, constant regions, Fc, V domains shown, not shown: another chain or arm of the molecule; a dimerising Fc or GST)
VH: EVQLVESGGGLVKPGGSLRLSCAASGFTFSSYSMNWVRQAPGKGLEWVSSISSSSSYIYYADSVKGRFTISRDNAKNSLYLQMNSLRAEDTAVYYCARGAPMGAAAGWFDPWGQGTLVTVSS
VL: DIQMTQSPSSVSASVGDRVTITCRASQGISSWLAWYQQKPGKAPKLLIYAASSLQSGVPSRFSGSGSGTDFTLTISSLQPEDFATYYCQQGVSFPRTFGGGTKVEIK
Stoichiometry [1]: 1.12 | Stoichiometry [2]: 1.01 | Kd [3]: 420 nM | Kd [4]: 523 nM | koff [4]: 0.106 s⁻¹ | kon [4]: 203000 M⁻¹ s⁻¹ | Kd [5]: 487 nM | koff [6]: 0.112 s⁻¹ | kon [6]: 196000 M⁻¹ s⁻¹ | Stoichiometry [7]: 1.01 | Kd [8]: 595 nM | koff [8]: 0.115 s⁻¹ | kon [8]: 193000 M⁻¹ s⁻¹ | Kd [9]: 462 nM | Kd [10]: 580 nM | Kd [11]: 605 nM | koff [11]: 0.116 s⁻¹ | kon [11]: 191000 M⁻¹ s⁻¹ | Stoichiometry [12]: 0.88

From patent US20240076384A1
